# Assay results taken from the RNAGym collection of RNA variant scans (doi:10.1073/pnas.2313332121).
# B1: TPR t1 (parent)
# chain: GACCAAUCUGCCCUCAGAGCUCGAGAACAUCUUCGGAUGCAGAGGAGGCAGGCUUCGGUGGCGCGAUAGCGCCAACGUCCUCAACCUCCAAUGCAUCCCACCACAUGAUGAUGCCUGAAGAGCCUUGGUUUUUUG
# Variants of: B1
# Test: polymerase ribozyme fitness, log enrichment relative to wild type (log ratio); higher = more active; in vitro selection for triplet polymerase activity
# In short: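 Mutant libraries were PCR-built and transcribed for each subunit of a heterodimeric triplet polymerase ribozyme and selected for one round in triplicate at −7 °C, frozen, before gel excision of extended constructs and streptavidin-bead capture. Input and output libraries were Illumina-sequenced, keeping genotypes with ≥10 input reads and ≥1 read per output. Fitness is a logarithmic ratio of genotype to wild-type enrichment, in base 2, using inverse-variance-weighted replicate averages.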
row,Variant,polymerase ribozyme fitness (log ratio)
1,A90C U106A,-1.42
2,U96C C102U G110A G122U,-6.13
3,C88A C102A,-2.16
4,U92G C101U A103U U109A,-6.74
5,C99U C115A,-3.86
6,U87G A103C U106C C124G,-1.08
7,G93C C124U U125C,-1.05
8,U92C C99G G113U,-6.05
9,C86G U126C,-1.74
10,A91C A103C,-7.08
11,C89A U132C,-1.96
12,C94U U125G,-1.32
13,C94U U125A,-0.818
14,U87A A121C,1.23
15,U87A A121G,1.17
16,C89G U106A G120C G122C,-1.85
17,G93U A121U U131G,0.33
18,C86U G120A,0.277
19,G93A C114G,-2.93
20,G93C C101A C104U,-2.05
21,C86G G110A G113U C124A,-6.69

row,Variant,polymerase ribozyme fitness (log ratio)
1,U92G A121G,-0.555
2,C94U U131A,-0.362
3,G93A U132A G135U,-0.722
4,A100C U112G,-0.251
5,A90G U92G G107U C114U G127U,-5.63
6,C88G C124G,1.77
7,C88G C124U,0.871
8,C94A G128A,-2.41
9,U87A A105U,-1.78
10,C98U G120C,-0.208
11,C86U C89U,-0.118
12,A90U A103U U106C,-5.93
13,C94A C124A U125C U131A,-0.191
14,C98U A121C U125A U129A,-1.75
15,A91C A111C,-2.03
16,C97G C102G A111G,-6.52
17,C89A G120C,-0.369
18,A90C U112G,-0.757
19,A90C U112A,-1.21
20,U87A A118G,0.111
21,A95G C97U A105U G122U,-4.71

row,Variant,polymerase ribozyme fitness (log ratio)
1,A91G A100C,-2.5
2,C86U C114A,-1.71
3,C98U C104U U112A,-2.26
4,A90G U126A,-1.39
5,U96A U133G,-0.674
6,A90C C101A,-2.32
7,C89U A121G,-0.907
8,G93U A111G,-0.352
9,C88G G110A,-1.15
10,C88G C89A,-1.75
11,U87G A103C,-5.65
12,C94A C114U,-2.56
13,A91U G128A,-3.34
14,C89A C97U,-2.16
15,U96A C99A U106G,-5.31
16,A95C G110A,-2.49
17,C88A C104A,-1.63
18,C86G U116A,-4.49
19,C99U C101A,-4.62
20,C99U C101U,-2.29
21,U96A C104U C124U,0.864

row,Variant,polymerase ribozyme fitness (log ratio)
1,C88U A118U,0.45
2,A91U U96A,-2.42
3,G93C U131A,-1.05
4,G93C U131G,-1.28
5,U87A G120C U131G,1.11
6,A95U G127A,-2.95
7,C97A A111G,-5.96
8,C97A A111U,-5.77
9,C88U C98A,-4.94
10,U92A A111G U129C U132C,-3.54
11,C94A C102U,-4.66
12,G93U G135C,-0.696
13,C89U U126C,-1.11
14,C98U U116A,-4.71
15,C94A G110C G120C,-6.12
16,C88A U92A G113A,-3.73
17,A90C G107C G110C,-6.73
18,C99U U134C,-4.03
19,G93C C99U,-3.93
20,C89A A119U,-1.88
